Laboratory results as given in patent US20240368267A1 (KODIAK SCIENCES, published 2024).
Substitutions are numbered along the chain they refer to. Numbers in names are those of the source.

B1: anti-IL-6 antibody, heavy chain I51A, G66D / light chain WT (antibody, human IgG1, V domains shown)
VH: EVQLVESGGGLVQPGGSLRLSCAASGFTFSPFAMSWVRQAPGKGLEWVAKASPGGSWTYYSDTVTDRFTFSLDTSKSTAYLQMNSLRAEDTAVYYCARQLWGYYALDIWGQGTLVTVSS
VL: DIQLTQSPSSLSASVGDRVTITCSASISVSYMYWYQQKPGKAPKLLIYDMSNLASGVPSRFSGSGSGTDFTLTISSLQPEDFATYYCMQWSGYPYTFGQGTKVEIK
notes: Derived as m2; Engineered human IgG1
B2: anti-IL-6 antibody, heavy chain I51D, G66D / light chain WT (antibody, human IgG1, V domains shown)
VH: B1 VH with A51D
VL: B1 VL
notes: as for B1
B3: anti-IL-6 antibody, heavy chain I51E, G66D / light chain WT (antibody, human IgG1, V domains shown)
VH: B1 VH with A51E
VL: B1 VL
notes: as for B1
B4: anti-IL-6 antibody, heavy chain I51F, G66D / light chain WT (antibody, human IgG1, V domains shown)
VH: B1 VH with A51F
VL: B1 VL
notes: as for B1
B5: anti-IL-6 antibody, heavy chain I51G, G66D / light chain WT (antibody, human IgG1, V domains shown)
VH: B1 VH with A51G
VL: B1 VL
notes: as for B1
B6: anti-IL-6 antibody, heavy chain I51H, G66D / light chain WT (antibody, human IgG1, V domains shown)
VH: B1 VH with A51H
VL: B1 VL
notes: as for B1
B7: anti-IL-6 antibody, heavy chain I51K, G66D / light chain WT (antibody, human IgG1, V domains shown)
VH: B1 VH with A51K
VL: B1 VL
notes: as for B1
B8: anti-IL-6 antibody, heavy chain I51L, G66D / light chain WT (antibody, human IgG1, V domains shown)
VH: B1 VH with A51L
VL: B1 VL
notes: as for B1
B9: anti-IL-6 antibody, heavy chain I51P, G66D / light chain WT (antibody, human IgG1, V domains shown)
VH: B1 VH with A51P
VL: B1 VL
notes: as for B1
B10: anti-IL-6 antibody, heavy chain I51Q, G66D / light chain WT (antibody, human IgG1, V domains shown)
VH: B1 VH with A51Q
VL: B1 VL
notes: as for B1
B11: anti-IL-6 antibody, heavy chain I51R, G66D / light chain WT (antibody, human IgG1, V domains shown)
VH: B1 VH with A51R
VL: B1 VL
notes: as for B1
B12: anti-IL-6 antibody, heavy chain I51S, G66D / light chain WT (antibody, human IgG1, V domains shown)
VH: B1 VH with A51S
VL: B1 VL
notes: as for B1
B13: anti-IL-6 antibody, heavy chain I51T, G66D / light chain WT (antibody, human IgG1, V domains shown)
VH: B1 VH with A51T
VL: B1 VL
notes: as for B1
B14: anti-IL-6 antibody, heavy chain I51V, G66D / light chain WT (antibody, human IgG1, V domains shown)
VH: B1 VH with A51V
VL: B1 VL
notes: as for B1
B15: anti-IL-6 antibody, heavy chain I51W, G66D / light chain WT (antibody, human IgG1, V domains shown)
VH: B1 VH with A51W
VL: B1 VL
notes: as for B1
B16: anti-IL-6 antibody, heavy chain I51Y, G66D / light chain WT (antibody, human IgG1, V domains shown)
VH: B1 VH with A51Y
VL: B1 VL
notes: as for B1
B17: anti-IL-6 antibody, heavy chain S35A, G66D / light chain WT (antibody, human IgG1, V domains shown)
VH: B1 VH with S35A, A51I
VL: B1 VL
notes: as for B1
B18: anti-IL-6 antibody, heavy chain S35D, G66D / light chain WT (antibody, human IgG1, V domains shown)
VH: B1 VH with S35D, A51I
VL: B1 VL
notes: as for B1
B19: anti-IL-6 antibody, heavy chain S35E, G66D / light chain WT (antibody, human IgG1, V domains shown)
VH: B1 VH with S35E, A51I
VL: B1 VL
notes: as for B1
B20: anti-IL-6 antibody, heavy chain S35F, G66D / light chain WT (antibody, human IgG1, V domains shown)
VH: B1 VH with S35F, A51I
VL: B1 VL
notes: as for B1
B21: anti-IL-6 antibody, heavy chain S35G, G66D / light chain WT (antibody, human IgG1, V domains shown)
VH: B1 VH with S35G, A51I
VL: B1 VL
notes: as for B1
B22: anti-IL-6 antibody, heavy chain S35I, G66D / light chain WT (antibody, human IgG1, V domains shown)
VH: B1 VH with S35I, A51I
VL: B1 VL
notes: as for B1
B23: anti-IL-6 antibody, heavy chain S35K, G66D / light chain WT (antibody, human IgG1, V domains shown)
VH: B1 VH with S35K, A51I
VL: B1 VL
notes: as for B1
B24: anti-IL-6 antibody, heavy chain S35L, G66D / light chain WT (antibody, human IgG1, V domains shown)
VH: B1 VH with S35L, A51I
VL: B1 VL
notes: as for B1
B25: anti-IL-6 antibody, heavy chain S35P, G66D / light chain WT (antibody, human IgG1, V domains shown)
VH: B1 VH with S35P, A51I
VL: B1 VL
notes: as for B1
B26: anti-IL-6 antibody, heavy chain S35Q, G66D / light chain WT (antibody, human IgG1, V domains shown)
VH: B1 VH with S35Q, A51I
VL: B1 VL
notes: as for B1
B27: anti-IL-6 antibody, heavy chain S35T, G66D / light chain WT (antibody, human IgG1, V domains shown)
VH: B1 VH with S35T, A51I
VL: B1 VL
notes: as for B1
B28: anti-IL-6 antibody, heavy chain S35V, G66D / light chain WT (antibody, human IgG1, V domains shown)
VH: B1 VH with S35V, A51I
VL: B1 VL
notes: as for B1
B29: anti-IL-6 antibody, heavy chain S35W, G66D / light chain WT (antibody, human IgG1, V domains shown)
VH: B1 VH with S35W, A51I
VL: B1 VL
notes: as for B1
B30: anti-IL-6 antibody, heavy chain S35Y, G66D / light chain WT (antibody, human IgG1, V domains shown)
VH: B1 VH with S35Y, A51I
VL: B1 VL
notes: as for B1
B31: anti-IL-6 antibody, heavy chain T63A, G66D / light chain WT (antibody, human IgG1, V domains shown)
VH: B1 VH with A51I, T63A
VL: B1 VL
notes: as for B1
B32: anti-IL-6 antibody, heavy chain T63D, G66D / light chain WT (antibody, human IgG1, V domains shown)
VH: B1 VH with A51I, T63D
VL: B1 VL
notes: as for B1
B33: anti-IL-6 antibody, heavy chain T63F, G66D / light chain WT (antibody, human IgG1, V domains shown)
VH: B1 VH with A51I, T63F
VL: B1 VL
notes: as for B1
B34: anti-IL-6 antibody, heavy chain T63G, G66D / light chain WT (antibody, human IgG1, V domains shown)
VH: B1 VH with A51I, T63G
VL: B1 VL
notes: as for B1
B35: anti-IL-6 antibody, heavy chain T63H, G66D / light chain WT (antibody, human IgG1, V domains shown)
VH: B1 VH with A51I, T63H
VL: B1 VL
notes: as for B1
B36: anti-IL-6 antibody, heavy chain T63I, G66D / light chain WT (antibody, human IgG1, V domains shown)
VH: B1 VH with A51I, T63I
VL: B1 VL
notes: as for B1
B37: anti-IL-6 antibody, heavy chain T63L, G66D / light chain WT (antibody, human IgG1, V domains shown)
VH: B1 VH with A51I, T63L
VL: B1 VL
notes: as for B1

The binders below were run against T1, human IL-6 (human, UniProt P05231 30-212) (assay: SPR (Biacore T200), antibody from cell supernatant captured on Protein A, IL-6 flowed over, 37 C).
T1 construct: also called interleukin-6
T1 sequence (P05231 30-212 limits assumed): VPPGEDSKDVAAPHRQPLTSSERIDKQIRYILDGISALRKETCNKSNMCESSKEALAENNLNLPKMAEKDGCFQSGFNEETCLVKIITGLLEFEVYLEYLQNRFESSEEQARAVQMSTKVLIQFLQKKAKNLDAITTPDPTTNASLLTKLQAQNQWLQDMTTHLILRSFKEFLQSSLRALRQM
Experimental: Those four positions were selected based on their tolerance for mutations as observed in bacterial and mammalian screens. […] These cultures were centrifuged and supernatants containing secreted antibodies were harvested and diluted in HBS-EP+ running buffer (1:20 ratio).
Antibodies were captured on a Protein A chip (GE) by injecting 1:20 cell supernatant dilutions at 10 μL/min for 60 seconds. […] The sensor chip was regenerated by a 60 seconds injection of 10 mM Glycine pH 1.7 at the flow rate of […]. […] For this setup, 1 μg/mL of purified antibody was injected over a Protein A chip at 10 μL/min for 25 seconds. […] The sensor chip was regenerated by a 60 seconds injection of 10 mM Glycine pH 1.7 at flow rate of 50 μL/min. Data analysis for supernatant and purified samples were performed using BIAevaluation software (GE). All sensorgrams were double reference subtracted and fit using a 1:1 Langmuir binding model.

| Binder | Kd [nM] | koff [s⁻¹] | kon [M⁻¹ s⁻¹] |
| --- | --- | --- | --- |
| B1 | 0.327 | 0.000576 | 1.76e+06 |
| B2 | 2.69 | 0.00267 | 991000 |
| B3 | 1.01 | 0.00076 | 754000 |
| B4 | 2.24 | 0.00305 | 1.36e+06 |
| B5 | 0.428 | 0.000581 | 1.36e+06 |
| B6 | 0.348 | 0.000529 | 1.52e+06 |
| B7 | 0.291 | 0.000402 | 1.38e+06 |
| B8 | 0.386 | 0.000733 | 1.9e+06 |
| B9 | 387 | 0.00612 | 15800 |
| B10 | 0.336 | 0.000648 | 1.93e+06 |
| B11 | 0.169 | 0.000202 | 1.2e+06 |
| B12 | 0.191 | 0.000362 | 1.89e+06 |
| B13 | 0.232 | 0.000415 | 1.79e+06 |
| B14 | 0.00369 | 6.68e-06 | 1.81e+06 |
| B15 | 4.93 | 0.00943 | 1.91e+06 |
| B16 | 3.45 | 0.0051 | 1.48e+06 |
| B17 | 0.3 | 0.000494 | 1.65e+06 |
| B18 | 0.321 | 0.000641 | 2e+06 |
| B19 | 0.582 | 0.000509 | 874000 |

| Binder | Kd [nM] | koff [s⁻¹] | kon [M⁻¹ s⁻¹] |
| --- | --- | --- | --- |
| B20 | 0.749 | 0.00119 | 1.59e+06 |
| B21 | 0.284 | 0.00036 | 1.27e+06 |
| B22 | 0.334 | 0.000376 | 1.12e+06 |
| B23 | 0.557 | 0.000949 | 1.7e+06 |
| B24 | 0.315 | 0.000351 | 1.11e+06 |
| B25 | 11.9 | 0.00123 | 103000 |
| B26 | 0.302 | 0.000395 | 1.31e+06 |
| B27 | 0.297 | 0.000409 | 1.38e+06 |
| B28 | 0.414 | 0.000469 | 1.13e+06 |
| B29 | 23.5 | 0.00217 | 92300 |
| B30 | 0.503 | 0.000551 | 1.1e+06 |
| B31 | 0.177 | 0.000496 | 2.8e+06 |
| B32 | 0.204 | 0.000392 | 1.92e+06 |
| B33 | 0.221 | 0.000401 | 1.81e+06 |
| B34 | 0.213 | 0.000397 | 1.86e+06 |
| B35 | 0.213 | 0.00042 | 1.98e+06 |
| B36 | 0.211 | 0.000373 | 1.77e+06 |
| B37 | 0.21 | 0.000363 | 1.73e+06 |
